Among the data in patent US20240218054A1 (MABLOC, published 2024) are Kd values, retold here.

Residue numbers refer to the chain shown, from its start.

This assay deals with T1, recombinant YFV E protein (soluble E, sE; YFV Asibi strain) (Yellow fever virus, Asibi strain, UniProt Q6DV88 286-678).
T1 construct: also called YFV E antigen; YFV E monomer
The experiment in a line: BLI monovalent (IgG on tip).

T1 sequence (Q6DV88 286-678): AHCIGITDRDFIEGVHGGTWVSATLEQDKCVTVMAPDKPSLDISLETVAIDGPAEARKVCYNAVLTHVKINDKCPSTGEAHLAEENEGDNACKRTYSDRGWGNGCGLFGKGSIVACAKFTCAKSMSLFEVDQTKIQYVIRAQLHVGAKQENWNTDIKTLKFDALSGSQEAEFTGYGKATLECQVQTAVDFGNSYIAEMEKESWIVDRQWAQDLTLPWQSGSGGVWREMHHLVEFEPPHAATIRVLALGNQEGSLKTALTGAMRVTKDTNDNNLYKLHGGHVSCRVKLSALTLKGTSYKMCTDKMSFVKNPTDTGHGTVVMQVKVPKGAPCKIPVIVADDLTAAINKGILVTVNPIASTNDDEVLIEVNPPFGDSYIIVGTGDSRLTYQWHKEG

B1: ADI-50537 (antibody, V domains shown)
VH: QVQLVQSGSELKKPGASVKVSCKASGYTFTSYAMNWVRQAPGQGLEWMGWINTNTGNPTYAQGFTGRFVFSLDTSVSTAYLQISSLKAEDTAVYYCARGYCSSTSCYGGLYWFDPWGQGTLVTVSS
VL: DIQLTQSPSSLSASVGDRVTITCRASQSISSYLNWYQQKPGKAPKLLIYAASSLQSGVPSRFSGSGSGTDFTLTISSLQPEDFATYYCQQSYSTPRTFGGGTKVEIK
notes: full-length IgG; also called Antibody Number 139
B1: the dissociation constant Kd – broadly, the equilibrium constant for the complex coming apart – is > 100 nM.

B2: ADI-42226 (antibody, V domains shown)
VH: EVQLLESGGGLVQPGGSLRLSCAASGFIFSDHYMDWVRQAPGKGLEWVGRIRNKPNSYTTDYAAYVKGRFSISRDDSKNSLFLQMNSLKTEDTAVYYCARVVNGLDVWGQGTTVTVSS
VL: SYELTQPPSVSVSPGQTARITCSGDALPKQYAYWYQQKPGQAPVLVIYKDTERPSGIPERFSGSSSGTTVTLTISGVQAEDEADYYCQSADSSVADSSVVFGGGTKLTVL
notes: full-length IgG
In the case of B2, the dissociation constant (Kd) was 0.843 nM.

B3: ADI-46739 (antibody, V domains shown)
VH: EVQLVESGPGLVKPSGTLSLTCAVSGGSISSDNWWSWVRQAPGKGLEWIGEIYHTGSTSYNPSLKSRVTISLDKSKNHFSLKLNSLTAADTAVYYCAGKKWELLGFRFDPWGQGTLVTVSS
VL: NFMLTQPPSVSAAPGQKVTISCSGSNSNIGNNFVSWYQQLPGTAPKLLIYDNNERPSGIPDRFSGSKSVTSATLGITGLQTGDEADYYCGTWDNSLGMVVFGGGTKLTVL
notes: full-length IgG; also called Antibody Number 124
As to B3, the Kd is > 100 nM.

B4: ADI-42817 (antibody, V domains shown)
VH: QVTLKESGPTLVKPTQTLTLTCTFSGFSLSTSGVGVGWTRQPPGKALEWLALIYWDDDKRYSPSLKSRLTITKDTSKNQVVLTMTKMDPVDTATYYCAHRHIAARLYRDDDVFDVWGQGTMVTVSS
VL: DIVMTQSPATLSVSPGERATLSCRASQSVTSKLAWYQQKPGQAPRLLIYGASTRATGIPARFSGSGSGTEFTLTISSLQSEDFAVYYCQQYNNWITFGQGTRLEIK
notes: full-length IgG
For B4, the Kd was 4.15 nM.

B5: ADI-49032 (antibody, V domains shown)
VH: EVQLVQSGGGLVQPGGSLRLSCVGSGLTLSSSAMSWVRQAPGKGLECVSGITGSGSDSSYAASVKGRFTISRDNSKNTVYLQMNSLRAEDTAVYYCAKDLTHRLGSIFGKLTFDAFDIWGPGTMVTVSS
VL: DIRLTQSPSTLSASVGDRVTITCRASQSISGWLAWYQQKPGKAPKLLIYKASILESGVPSRFSGSQSGTEFTLTISSLQPDDFATYYCQQYNNFWTFGQGTKLEIK
notes: full-length IgG; also called Antibody Number 119
For the molecule B5, the dissociation constant Kd came to 0.486 nM.

B6: ADI-48894 (antibody, V domains shown)
VH: EVQLVESGGGLVQPGGSLRLSCAVSGFTFSDHYMDWVRQAPGKGLEWVGRSRNKVNSYITEYAASVKGRFSISRDDSKNSLYLQMNSLKIEDTAVYYCARVFGGPTDYWGQGTLVTVSS
VL: EIVLTQSPSSLSASVGDRVTITCRASQGISNYLAWYQQKPGKAPKLLIYAASTLQSGVPSRFSGSGSGTDFILTISSLQPEDVATYYCQKYYSAPLITFGPGTKVEIK
notes: full-length IgG
For the molecule B6, the dissociation constant Kd amounted to 95.6 nM.

B7: ADI-48890 (antibody, V domains shown)
VH: EVQLVESGGGLVQPGGSLRLSCAASGFTFSDHYMDWVRQAPGKGLEWVGRARNRANSYTTEYAASVKGRFAASRDDSKNSLYLQMNSLKTEDTAVYYCARVRGSYWDYWGQGTLVTVSS
VL: QSALTQPPSASGSPGQSVTISCTGTSSDVGGYNYVSWYQQHPGKAPKLMIYEVSKRPSGVPDRFSGSKSGNTASLTVSGLQAEDEADYYCSSFAGSNNLYVFGTGTKVTVL
notes: full-length IgG
Consider B7, for which the Kd is > 100 nM.

B8: ADI-49037 (antibody, V domains shown)
VH: EVQLVESGGGVVQPGRSLRLSCAASGFTLSSYVMHWVRQAPGKGLEWVAVISSDGTNKYYADSVKGRFTISRDSSKNTLYLQMNSLRPEDSAVYYCARGQPDYWGQGTLVTVSS
VL: EIVLTQSPATLSLSPGERATLSCRASQSVSNYFAWYQQKPGQAPRLLIYGASNRATGVPARFSGSGSGTDFTLTISSLEPEDFAVYYCQQRSNWPYTFGQGTKVEIK
notes: full-length IgG
On to B8, for which the Kd was 3.53 nM.

B9: ADI-46737 (antibody, V domains shown)
VH: QVQLVQSGGGVVQPGRSLRLSCAASGFTFSSYAMHWVRQAPGKGLEWVAVISYDGSNKYYADSVKGRFTISRDNSKNTLYLQMNSLRAEDTAVYYCARDGAGDYIWGSYRHKGLHYYYGMDVWGQGTTVTVSS
VL: DIQLTQSPSSLSASVGDRVTITCRASQGIRNDLGWYQQKPGKAPKRLIYAASSLQSGVPSRFSGSGSGTEFTLTISSLQPEDFATYYCLQHNSYPLTFGGGTKVEIK
notes: full-length IgG; also called Antibody Number 140
For B9, the dissociation constant Kd is > 100 nM.

B10: ADI-48900 (antibody, V domains shown)
VH: EVQLQESGPGLVKPSGTLSLTCAVSGGSISSSDWWSWVRQPPGKGLEWIGEIYHSGSTSYNPSVKSRVSISVDKSKNQFSLQLSSVTAADTAIYYCARVNPPQYSSGWYSVYWGQGTLVTVSS
VL: QSVVTQPPSVSAAPGQKVTISCSGSSSNIGNNYVSWYQQLSETAPKLLIYDNNKRPSGIPNRFSGSKSGTSATLGITGLQTGDEADYYCGTWDNSLGAVVFGGGTKVTVL
notes: full-length IgG; also called Antibody Number 13
Turning to B10, the dissociation constant Kd was 26.2 nM.

B11: ADI-50539 (antibody, V domains shown)
VH: EVQLVESGPGLVKPSGTLSLTCAVSGGSISSSNWWSWVRQPPGKGLEWIGEIYHSGSTNYNPSLKSRVTISVDKSKNQFSLKLSSVTAADTAVYYCARARWEDGNYYYGMDVWGQGTTVTVSS
VL: B10 VL with S2P, V4L, S41P, E42G, N61D, N94S, G97S
notes: full-length IgG; also called Antibody Number 134
As to B11, the dissociation constant (Kd) is > 100 nM.

B12: ADI-48951 (antibody, V domains shown)
VH: EVQLLESGPGLVKPSGTLSLTCAVSGASISSNNWWSWVRQSPGKGLEWIGEIFHSGTTNYNPSLKSRVTISVDKSKNQFSLKLNSVTAADTAVYYCARDVGVAAVITGSVRWGQGTLVTVSS
VL: DIVLTQSPDSLAVSLGERAAINCKSSQSVFFSSDNKNYLAWYQQKPGQPPKLLIYWASTRESGVPDRFSGSGSGTDFTLTISSLQAEDVAVYYCQQFYTTPSTFGQGTKVEIK
notes: full-length IgG; also called Antibody Number 138
With B12, the Kd is 2.67 nM.

B13: ADI-50218 (antibody, V domains shown)
VH: QVQLVQSGAEVKKPGASVKVSCKASGYTFTSYDINWVRQATGQGLEWMGWMNPNSGNTGYAQKFQGRVTMTRNTSISTAYMELSSLRSEDTAVYYCARGLNTVTNSDYWGQGTLVTVSS
VL: DIQLTQSPSSVSASVGDRVTITCRASQGISSWLAWYQQKPGKAPKLLIYAASSLQSGVPSRFSGSGSGTDFTLTISSLQPEDFATYYCQQANSFPWTFGQGTKVDIK
notes: full-length IgG; also called Antibody Number 128
As for B13, the dissociation constant (Kd) was > 100 nM.

B14: ADI-49137 (antibody, V domains shown)
VH: EVQLVESGGGLVQPGGSLRLSCAASGFIFSDHYMAWVRQAPGKGLEWVGHVGNKANTYTTEYAASVKGRFTISRDDSKKSLYLQMNRLKSEDTAVYYCARVFSYYLDYWGQGTPVTVSS
VL: EIVLTQSPGTLALSPGERATLSCRASQSVSSYLAWYQQKPGQAPRLLIYDSSNRATGIPARFSGSGSGTDFTLTISSLEPEDFAVYYCQQPGNWPPAFTFGGGTKLEIK
notes: full-length IgG; also called Antibody Number 126
Turning to B14, the Kd is 0.854 nM.

B15: ADI-42810 (antibody, V domains shown)
VH: QVQLVESGAEEKKPGASVKVSCKASGYTFTSYAMHWVRQAPGQRLEWMGWINAGNGNTKYSQKFQGRVTITRDTSASTAYMELSSLRSEDTAVYYCARQWLGHFDYWGQGTLVTVSS
VL: QSALTQPASVSGSPGQSITISCTGTSSDVGGYNYVSWYQQHPGKAPKLMIYEVSNRPSGVSNRFSGSKSGNTASLTISGLQAEDEADYYCSSYTSSSTYVFGTGTKVTVL
notes: full-length IgG
In the case of B15, the Kd was > 100 nM.

B16: ADI-42206 (antibody, V domains shown)
VH: QVQLVQSGGGLVQPGGSLRLSCAASGFTFSDHYMDWVRQAPGKGLEWVGRIRNKVNSYTTEYAASVKGRFTISRDDSKNSLYLQMNSLKTEDTAVYYCGRDRGWLDIWGQGTMVTVSS
VL: B15 VL with A3V, E52D, S54T, K68R, S95R, Y99R, T103G, V107L
notes: full-length IgG; also called Antibody Number 132
For the molecule B16, the equilibrium dissociation constant (Kd) amounted to 1.73 nM.

B17: ADI-48969 (antibody, V domains shown)
VH: QVTLKESGGALVKPAGSLTLSCAASGFTFGDYYMSWIRQAPGKGLEWISYISSSGSSIYYTDSVRGRFTISRDNARNSLYLQMNSLRVEDTAVYYCAREFSSRPFDLWGQGTLVTVSS
VL: QSVLTQPRSVSGSPGQSVTISCTGTSSDVGAYNFVSWYQQYPGKAPKLMIYDVNKRPSGVPDRFSGSKSGNTASLTISGLQAEDEADYHCCSYAGTYTSNYVFGSGTKVTVL
notes: full-length IgG; also called Antibody Number 12
For the molecule B17, the equilibrium dissociation constant (Kd) stood at 5.86 nM.

B18: ADI-48950 (antibody, V domains shown)
VH: EVQLVESGGGVVQPGRSLRLSCAVSGFTFSTSPLHWVRQAPGKGLEWVAVSSFVATDKYYADSVKGRFTVSRDNSKNTLYLQMNSLRPEDTAVYYCARGFGELPGFDIWGQGTMVTVSS
VL: SYVLTQPPSASGSPGQSVTISCTGTSSDFGGYNYVSWYQQHPGKAPKLMVYEVAKRPSGVPDRFSGSKSGNTASLTVSGLQAEDEADYYCSSYAGSNNFVVFGGGTKLTVL
notes: full-length IgG; also called Antibody Number 142
As for B18, the Kd was determined as 1.53 nM.

B19: ADI-42217 (antibody, V domains shown)
VH: EVQLVESGGGVVQPGRSLRLSCADSGFTFSYSAIHWVRQAPGKGLEWVAVISYDGSNKYYADSVKGRFTISRDNSKNTLYLQMNSLRPEDTAVYYCARHSGGYSSKDKPTEYFQHWGQGTLVTVSS
VL: QSVLTQPPSVSGAPGQRVTISCTGSSSDIGAGYDVHWYQQLPGTAPKLLIYGNTNRPSGVPDRFSGSKSGTSASLAITGLQAEDEADYYCQSYDSSLSGVVFGGGTKLTVL
notes: full-length IgG
On to B19, for which the dissociation constant (Kd) amounted to 4 nM.

B20: ADI-42186 (antibody, V domains shown)
VH: QVQLQQSGPGLVKPSQTLSLTCAISGDSVSTNSAAWNWIRQSPSRGLEWLGRTYYRSKWYNDYALSVKSRITIKPDTSKNQFSLQLNSVTPEDTAVYYCAREGAGYYDSSGYYPLSYDAFDIWGRGTMVTVSS
VL: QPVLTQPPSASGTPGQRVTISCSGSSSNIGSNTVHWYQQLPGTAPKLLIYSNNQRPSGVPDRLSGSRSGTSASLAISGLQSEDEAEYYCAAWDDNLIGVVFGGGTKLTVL
notes: full-length IgG; also called Antibody Number 130
B20: the Kd was 1.21 nM.

B21: ADI-50197 (antibody, V domains shown)
VH: EVQLVESGGGVVQPGRSLRLSCAASGFTFSSYGMHWVRQAPGKGPEWVAVISEDGNKDHYVDSVKGRFSIYRDNSKSTVFLRMTSLRAEDTAVYYCAKDLTPYFYDSGAFDHWGQGTLVTVSS
VL: QSVLTQPPSVSGAPGQRVTISCTGNSSNIGAGYEVHWYQQLPGTAPKLLIYGNNNRPSGVPDRFSGSKSGASGSLAVTGLRAEDEADYYCHSYDSNMSGSVFGGGTKVTVL
notes: full-length IgG; also called Antibody Number 120
Regarding B21, the Kd is > 100 nM.

B22: ADI-46724 (antibody, V domains shown)
VH: QVQLQESGPGLVEPSGTLSLTCVVTGDSISSRSWWSWVRQPPGKGLEWIGEIYHSGTTTYSPSLKSRVIISLDKSENHFSLKMTSVTAADTAVYYCARVIRDLRDYYDGSGYGPDAFDIWGQGTTVTVSS
VL: QPVLTQPPSVSAAPGQKVTISCSGSSSNIGSNFVSWYQQFPGTAPKLLIYDDNKRPSGIPDRFSGSKSGTSATLGITGLQTGDEADYYCETWDSRLSVVFGGGTKLTVL
notes: full-length IgG; also called Antibody Number 133
Consider B22, for which the dissociation constant (Kd) is > 100 nM.
